Assay results as given in patent US20260070986A1 (AFFIMED, published 2026).

How the values were obtained:
[1] = biological target: T1, recombinant human FcγRI (CD64), biotinylated (human, UniProt P12314 16-288, limits assumed, site-directed biotinylation at AviTag); assay: SPR (Biacore), 37 °C, biotin-captured human CD64 as ligand, steady-state plot; left-hand column, no heading on the sheet
T1 construct: also called human CD64
Description: FIG. 20: SPR interaction analysis of antibody binding to CD64 and murine CD16-2. […] Affinity parameters were evaluated for interaction with receptors using a Steady State Binding model.

[2] = biological target: T2, recombinant murine FcγRIIB (CD32), biotinylated (murine, UniProt P08101 30-207, limits assumed, site-directed biotinylation at AviTag); assay: SPR (Biacore T200), 37 C, biotin-captured receptor
T2 construct: also called murine CD32B; mouse CD32B
T2 sequence (looked up): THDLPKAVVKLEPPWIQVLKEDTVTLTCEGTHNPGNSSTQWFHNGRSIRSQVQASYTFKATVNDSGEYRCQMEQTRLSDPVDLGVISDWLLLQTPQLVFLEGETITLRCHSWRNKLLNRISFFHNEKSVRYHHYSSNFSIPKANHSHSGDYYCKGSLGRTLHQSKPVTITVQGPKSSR
Description: Sensor chips were pre-equilibrated in HBS-P+ running buffer for 12 hours prior to the first measurement and the detectors were normalized using BIAnormalization solution (70% w/w glycerol) according to the manufacturer's instructions.
Interaction analysis of FcRn binding was performed at pH 6.0 in PBS/0.05% Tween 20; analytes and ligands were diluted in the same buffer. […] Ligand-free surfaces in FC1 and FC3 were used as references for response signals (FC2-1, FC4-3). Interaction analysis of CD64, CD32, and murine CD16-2 binding was performed in HBS-P+ buffer and analytes and ligands were diluted in the same buffer. Biotinylated Fcγ-Receptors were captured to a density of approximately 15 to 30 RU (FC2, FC3, and FC4) before increasing concentrations (500 nM to 4000 nM) of antibody were injected, using the single-cycle kinetic mode (FC1-FC4) at a flow rate of 40 μL/min for 100 seconds followed by dissociation for 90 seconds. A zero-concentration cycle and ligand-free surface in FC1 was used for referencing of response signals (FC2-1, FC3-1, and FC4-1). Sensor chip surfaces were prepared and regenerated before and after each measurement using Biotin Capture reagent (Biotin CAPture Kit, GE Healthcare) and 6 M guanidine-HCl, 0.25 M NaOH, respectively.
Binding affinities were determined by fitting data using the steady state affinity model of the Biacore T200 Evaluation software (v3.1).

T1 sequence (P12314 16-288 limits assumed): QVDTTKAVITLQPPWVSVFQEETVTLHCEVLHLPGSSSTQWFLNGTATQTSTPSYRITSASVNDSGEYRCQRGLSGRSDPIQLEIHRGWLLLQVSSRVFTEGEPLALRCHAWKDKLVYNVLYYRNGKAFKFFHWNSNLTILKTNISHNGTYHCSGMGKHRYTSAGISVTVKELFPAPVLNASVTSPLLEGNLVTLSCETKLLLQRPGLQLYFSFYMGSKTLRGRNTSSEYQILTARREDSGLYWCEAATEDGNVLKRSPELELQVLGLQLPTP

B1: scFv-IgAb_268 (CD123-1xCD16a1) (bispecific antibody)
heavy: QVQLQQSGAEVKKPGASVKVSCKASGYTFTDYYMKWVKQSHGKSLEWMGDIIPSNGATFYNQKFKGKATLTVDRSTSTAYMELSSLRSEDTAVYYCARSHLLRASWFAYWGQGTLVTVSSASTKGPSVFPLAPSSKSTSGGTAALGCLVKDYFPEPVTVSWNSGALTSGVHTFPAVLQSSGLYSLSSVVTVPSSSLGTQTYICNVNHKPSNTKVDKKVEPKSCDKTHTCPPCPAPEFEGGPSVFLFPPKPKDTLMISRTPEVTCVVVAVSHEDPEVKFNWYVDGVEVHNAKTKPREEQYNSTYRVVSVLTVLHQDWLNGKEYKCKVSNKALPAPIEKTISKAKGQPREPQVYTLPPSREEMTKNQVSLTCLVKGFYPSDIAVEWESNGQPENNYKTTPPVLDSDGSFFLYSKLTVDKSRWQQGNVFSCSVMHEALHNHYTQKSLSLSPGGGGGSGGGGSGGGGSGGGGSGGGGSGGGGSSYELTQPLSVSVALGQTARITCGGNNIGSKSVHWYQQKPGQAPVLVIYQDKKRPSGIPERFSGSNSGNTATLTISRAQAGDEADYYCQVWDDYIVLFGCGTKLTVLGGSGGSGGSGGSGGSGGSGGSQVQLVQSGAEVKKPGASVKVSCKASGYTFTNYYMQWVRQAPGQCLEWMGIINPSGGVTSYAQKFQGRVTMTRDTSTSTVYMELSSLRSEDTAVYYCARGSAYYYDFADYWGQGTLVTVSS
light: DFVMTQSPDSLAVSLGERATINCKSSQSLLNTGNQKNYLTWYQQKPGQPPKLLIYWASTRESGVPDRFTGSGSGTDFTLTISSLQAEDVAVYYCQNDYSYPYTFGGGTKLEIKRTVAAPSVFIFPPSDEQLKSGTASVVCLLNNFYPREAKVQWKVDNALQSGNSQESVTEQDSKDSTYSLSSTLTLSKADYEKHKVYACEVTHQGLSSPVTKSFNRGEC
notes: also called AFM28; CD123xCD16A scFv-IgAb_268
B1: no binding [1]; no binding (tested: 500 nM to 4000 nM) [2].
